Source: the domain aggregation screens of Martell et al. (2025)

Assay: soluble fraction after stress (log2 fold change); higher = more stays soluble; pooled small domains, quantitative proteomics
Conditions: stress: 75 degC
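Further: 20 min heating vs room temperature control held 20 min.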

HMPIEQVEVPNLTNMTREEAESTLTSLNLKAQVHEEANEADEGKVFKQGTNTGEMVDEGSTIEIWVS
soluble fraction (log2): -0.549

HMPIHAGERLTLRLAGEGREAGQAIGYLEDGTLVIVERARHLIGQDVTVEVTRTLQTAGGRLVFAHLVE
soluble fraction (log2): -1.1

HMPKDLEKRAAILAAAKHLFPVHGFEGTSMDAIAALANVSKLTVYSHFKDKESLFTEAIREK
soluble fraction (log2): -0.0647

HMPKDMAKRASILTAASKLFVQHGYGGVSMDQIAAEAGVSKLTVYSHYGDKDSLFAAAVQAH
soluble fraction (log2): -0.617

HMPKELAPYDILARYYLTVNNSKQSIALLEQYLDKAGSAPAALKAKLLLAGILYPSGNKERAEKLVEEVIK
soluble fraction (log2): -0.463

HMPKETFLNLDEEKRQAIINVLLKNFSEQHISQVKVSAIVSGIGMSRGAFYKYFEDLEDAYRFTISYFSA
soluble fraction (log2): 0.147

HMPKLTKEEIQFIDNYLKNSGVEYIDTRAEVVDHVASEIESRLSANNTTNFYEEFKVYMVQHKETLLK
soluble fraction (log2): -0.21

HMPKLVGEVMQTLDALRREKGLSLLLVEQNARAALGVVDRVYVLERGRVVFEGSAKEAMEDQDVMEFYLG
soluble fraction (log2): 0.0465

HMPKRSKDEAELEFLEMLRDNQVDSTWSFGKIISQLGSTDPRYWMVDDDPLWKRQIFEKYLSNR
soluble fraction (log2): -0.228

HMPLDISDDSKAVLKLLKNDSNELNTVKSASGLSNKKWDKTIKELTKNKIVSVSKTEDGLYIHLI
soluble fraction (log2): 0.438

HMPLDYQELRNISPQAARQAILQILKANKGNVSQTARMLGITRKTVYKAMAKREAGNLDDGSRAPK
soluble fraction (log2): -1.41

HMPLLELPDDFYPAWKPKTIYVQGQRIMLDGVAFEAKWWTQGDNPASGQADPGSSPWRTLTQEEIAKLLE
soluble fraction (log2): -1.52

HMPLLKIGAQGHDVRVVQEALQRAGYAIEGVTGIFDEATREAVLAFQRDQQLTESGTVDRATWHALRR
soluble fraction (log2): -0.0683

HMPLLSPRQLDVLSLAAGGLSDAQIAGRLVLSESTVRVHFHHIIEKLGVTDRAGAIAWYEQSRS
soluble fraction (log2): -2.05

HMPLNAFDVAGYRLGYGGGYFDRTLAALSPRPLAVGVGFEINRLESIRPEAHDQRLDWIVTENGAFRPA
soluble fraction (log2): -1.58

HMPLNAHIVGRGKRDRRGKRGAPYSIVLELGRDENGKRIQKWYSGYPTKAAAEEDKIRMLRELQTGEYVPQ
soluble fraction (log2): -0.889

HMPLPFSPVMFVGTKSGAQTDLDGNYKIETYYSSDSLKVVVLGYAPLAKKVKQGTTSVVNFELSAAS
soluble fraction (log2): 0.161

HMPLPLYVQIKESLRGQIFDGTYGEHERLPSENDLMSSFGVSRITVRQALSDLEKEELIFKVPGKGAFVSR
soluble fraction (log2): -1.5

HMPLQKNRPKIKPQKVVFLFSVEWMWSPAHNRIDSYFINIKPSRYYLWNSFFDRHSFSDYWDFIGYTEN
soluble fraction (log2): 0.1

HMPLSDAEKAAAIATQAKERALKLSPEMISYLLRHASRDMRTLSMLVVALDQYTLEQKRPVTLPLLRELLS
soluble fraction (log2): -0.0668

HMPMIQHFHRMISAALGISEKQIVQTLGLLNDGATIPFISRYRKEVTGGLDEVQIESIKTHYEKLNEIAK
soluble fraction (log2): -2.33

HMPMPQDEVSYALGLSIGQNFKASGIKAITSEDFIAGLQDALAEREPQMTTERAREVINQLFMRLQQEESE
soluble fraction (log2): 0.323

HMPMTDYQLIRSNRRTIALQITRDARVVVRAPLYASEADIRRFVESHRAWIESHLDRQRARTD
soluble fraction (log2): -3.25

HMPMTRILFLPDDRTILQFDSAEPAEDLVSAVNAGRWLPPEPYRSGFGLGLPENRLRASRQGALVVVMLS
soluble fraction (log2): -0.984

HMPNDYRKKLEILAKEKGAEYLHTMLTEVDPKSALQIHTNNIKRTIRALEFYHQTGMKISEHNEAEREK
soluble fraction (log2): -0.204

HMPNIHVVFAEEWTDRRLDKVLSEYFDGYSRSFIKKLFDDGLILVNSKAVKPSYKVRAGDMIDISVPDPV
soluble fraction (log2): -1.83

HMPNPALESARPAFEAFLSRFSDGEAMRGPAWGLWSLLHRKGNAPTASHAAGRDGMGVLAFLRHWQWG
soluble fraction (log2): -0.452

HMPPDLSEAIQKRIEGKTDEALEILRKLYNEYPESTEIITMLGRTLLDAEEYALAAFRLEQALDLGG
soluble fraction (log2): -0.699

HMPPDVIENIFKNDANKIIDLYNMAPRGQKETIVEMIKNKRLQGINVDANVLVKLGELTGIDFVN
soluble fraction (log2): -0.087

HMPPLVLRGVVMGADGARLAILAQGEAGAALGIGETWKEYTLRSVTDQSATLEHRSGTITLTR
soluble fraction (log2): -0.701

HMPPNPELGKKLLKLRKEFKMTQDDVANILGMSRTSFSKYENGIANPPLQVMRKLASIYNVGLEYLI
soluble fraction (log2): -1.84

HMPQEMIEILATPNGWLRVRQGPGTNYPEITKVNSGEEFPLLEEKDSWFKIRIEEGQEGWISSQYAQKEE
soluble fraction (log2): 0.00978

HMPQGFEDLTEREREVLTLIAEGRTNQEIADALVISIKTVNRHRENIMAKLNLHSRVELVRYAIAQGLI
soluble fraction (log2): -2.61

HMPQNLQDQLFELILSRYPRRADAVEDLANILHLGKDPVYRRLRGDTFLSPLEISTLALHFRISLDALIV
soluble fraction (log2): -2.5

HMPQPEIEIAAVVPYSAGALLSRIHDDGELLAPVEYRGEGVFVHARVPADIEAAMRRGGMLSPAET
soluble fraction (log2): 0.0386

HMPQQVFKREDLQKWGLTGQADSRKRREKLGQLLGIGYGNGKQLIHRLNMFQVDRATFEQAIKQINQEEDH
soluble fraction (log2): -0.539

HMPQTNIYPNPAFDKLFVSNLENETNFKIMDLFGRTIINSKTKGEISISELKSGIYIIEINNFRQKFVK
soluble fraction (log2): -2.64

HMPQVALAIDEMKRELASPDIVKTLLATTFKGLSEVNMRQAMLDGMIQGHTIADFFKKDVYAIPFGSGYSL
soluble fraction (log2): 0.049

HMPRPFPELTTREHDILALIARGWSNGRIADHLSLSGKTVSNYVSNILGKLQVTARAEAAERAREAGMGQ
soluble fraction (log2): -0.379

HMPRRSYLDARKKLLGMLNSPDFNSGDQIPAERELSEVLGISRVTVRKIITELIDEGVLERRGNQGTWLVD
soluble fraction (log2): -1.01

HMPRSREVHVEPGMVLEDVTTGFVGAVIRTEKSAGIYVIELEDRRGRRRSFPLGGGFWLDGRPIIALPPLP
soluble fraction (log2): -1.81

HMPSLAVYPNPVKDILNIATDKPVHSIRIYNVYGSEVLRAADTNRIDVSHLPAGVYMVSADGKVTRIIK
soluble fraction (log2): -0.858

HMPSLGGLLALLKRNRKPDAMEALDRLISKEDRPETAEALENIREKVRNMQMREAEGLLLALMEP
soluble fraction (log2): -0.509

HMPSLILADEPTGNLDSRNSSEVIALLKNASKRYAQTIIMITHNRSIAQSADRVLQVSDGVLTDMG
soluble fraction (log2): 0.345

HMPSLNDRPDDVLYLFSYFLQSFSHRQVSLPKILKKALIQHDWWGNIRELHSVALRYYIFGDTLNGAYDSL
soluble fraction (log2): -0.99

HMPSLSREREAAILEMIERRPSTAEDVASGLGLAVNEVIKLLDGTALRGSVETFQSGEEIYYTRKR
soluble fraction (log2): 0.472

HMPSNVKIPDVTGKTVAQARSAIEAAGLKVGKEKDEYSDSAKKDSVIRTNPQAGTQRREGSTVDLIVS
soluble fraction (log2): 0.175

HMPSPFYIMDEVEAALDDTNLGRLITLFEELRDSSQLIVITHQKKTMEIADALYGVTMRGDGITTVVSQRL
soluble fraction (log2): 0.151

HMPSQEQSDKNAAMAFLPVIVKNALNGKGLKISDDWKAAVNTALAQYPLVNKFFNADSPEVTELVMGL
soluble fraction (log2): -0.0584

HMPSQLPLAFARRHGVLLRGFSNGLAQLTVRPEVSTLSLAETRRHLGVPLALEKVTTERFDQLLREAYEA
soluble fraction (log2): -0.9

HMPSYYKELQNYSPENPVVKKRKVHPDVVNAIKYLAEITDGNPMLIKAYAQMILAHVFTTMPLIDKSV
soluble fraction (log2): -0.00519

HMPTEAIVLQQIQIRQSPSGNSKSLQQILPGAKIKITSESSVKGWKQVSLDGGQKGWIPTAAIGL
soluble fraction (log2): -0.499

HMPTELVYTVPASAEGLRLDHFLVQHVPHMTRALATELTGAGGVRVNGRRAKKGDRLPSGAEVRLER
soluble fraction (log2): 0.0576

HMPTFAEKLHEVRKARDFTQDQLAKEMNVSRQTISHWENGRAVPDIDTIKHLSQVLDYNFLV
soluble fraction (log2): 0.0869

HMPTITIQRGIILSSTTKGFIDELSHSQIKNAIVERLGEHHVMIHESQLDAVIKYAQKKEAVINIYL
soluble fraction (log2): -0.874

HMPTMEQTYIGRTMIAEEDMGKNSKIKVSGIYWTAYNKGRVIKKGEEYKITGIEGNKLIVSSK
soluble fraction (log2): -0.393

HMPTNSDRLIGSDGVVSSKIDNLQGTGKVYISGLTWSARTIDGSEAEEGDIVTVEKIEGATLYVTKR
soluble fraction (log2): 0.174

HMPTNVYSIIGKEGIVLESIDNLNSTGKVKVNGELWSAISDSNIEKGETIKVLSVNGVKLKVEKVN
soluble fraction (log2): -0.00656

HMPTPASGSSGYINATNVNFRTGPATSYKSISKLAKNTAVTILGTSGNWYKVTVGSLGKNGYVFATYVTVS
soluble fraction (log2): -2.23

HMPTPLTPREHEIANLIAQGLSNREIADELVISPATAARHVANILAKLGFSSRTQVASWATRHD
soluble fraction (log2): -0.277

HMPTSLPGIDIDEKNIVSSTGALSFKKVPKKLAIIGGGYIGLEMGSVWSRLGSSVTVIEYLNFITPG
soluble fraction (log2): 0.365

HMPTTLEGIEKYLSSGLIKGIGPHLAGKLVEAFGTRVFEVVEHQPERLRTVGGIGRTRAESITSAWRDQ
soluble fraction (log2): -0.146

HMPTTNIRAFRLREADPESVKEALSMVMPKTSIYVDARTKSVLVVGLLDELARAAEIVALIDQP
soluble fraction (log2): -2.8

HMPVFSAEQVAKAEADVQKVANKVQEAGADVEKLTTIHNWLLAREKYMPPDLFSTANQIIATAFQKAG
soluble fraction (log2): 0.525

HMPVGSIGERLKALRLKAGLTQEEVGQHVHISKQTLYKYENGIVTNIPADKIELLATIYSVTPAYIMGWA
soluble fraction (log2): -2.27

HMPVQPMDPSIEHISALTGKQFQAFPGQDHRAHMTAHLNFMSTNIVRNNPAVMGAIQKNILEHISLMAQEQ
soluble fraction (log2): 0.322

HMPVSLHEQIQQARIRAEQNVEGISLLLQVNPKYYEQIEAGDVIPDQDLLKRISSLFGWNYHEMLHREKSS
soluble fraction (log2): -0.781

HMPVSTLLGDNLRRLRTAKGYTQEAVADAARISVAAYRNYETGRAIPKVNTLLAIARALGVSLNDLVTE
soluble fraction (log2): -0.605

HMPVTAQFDFSKVLAGRTLKDGEFSFVLKDKNGTVLQTKTNDASGKVAFDALIYKNNEVGEHKYTVEEVI
soluble fraction (log2): 0.237

HMPVVKIPFILTEGPSSITKVIEIDADEILELKDVFQEDDKLWSINQIEMNDGRYVKHSDASLIVRASALR
soluble fraction (log2): 0.233

HMPYHSEAWHKVMKSHWLTLSREEAYMHEGRTGASTINIVFQRELGREATQEEIESIYQEKSVLFNSYP
soluble fraction (log2): -1.52

HMPYLVNGFILEVQSDDNNPVGTLKRRYAVAKNKQGVILLEGEKSFSSNDQILINELKFYIQSNDLKA
soluble fraction (log2): -2.56

HMPYSKIALQISHLLKSHGVPLSNKQIYEKLINDFQLSINYSNLTNNILPRMNSDSSINVEKVTRGYWQY
soluble fraction (log2): -0.931

HMQADKYKSYTATDFLKDKDFLRWQLFNGEEDMLFWGRVIEEYPALRSRVEEGIVLYKDNIR
soluble fraction (log2): -0.711

HMQADTATITGNGVNMRSGPGTNYQIIDTIPKGTVAEVLSQQDGWVKIYSARISGWVSASYVEIKQT
soluble fraction (log2): -2.5

HMQAGNAVEQYPTIGRLEEVTLGRSQPGAPIGERLSTLETVVFKRNFNDDSLFDRTERLKKTILGG
soluble fraction (log2): -0.104
